The target in one data set is T1, ReAV (Rhizobium etli, UniProt Q2K0Z2).
T1 construct: gene ansA; recombinant from plasmid pET151-D-ReAV in E. coli BL21 Gold (DE3); His-tag cut with TEV protease; homodimer, Zn site C135/K138/C189
As to the kind of experiment: multiple injection isothermal titration calorimetry (ITC-MIM). It is filed as biochemical. The following applies: 10 mM Tris-HCl pH 9.0, 37 °C, no added Zn2+; WT values cited to the same group's earlier paper (Sliwiak et al., 2024); cited from earlier work. The source says: (§1) multiple injection isothermal titration calorimetry (ITC-MIM) on ReAV
A general note: In ITC the heat of successive injections is recorded.

Data set [1] concerns the molecule itself. As to the kind of experiment: crystal structure; vapor diffusion crystals grown at 19°C, protein supplemented with 0.5%-1% DDM; data at 100 K; molecular replacement with WT ReAV (PDB 7os5); homodimer(s) in the asymmetric unit.
Substrate in data set [2]: NC(=O)C[C@H](N)C(=O)O
Description: multiple injection isothermal titration calorimetry (ITC-MIM). It is filed as biochemical, Rhizobium etli. The following applies: 10 mM Tris-HCl pH 9.0, 37 °C, no added Zn2+.
Text: as §1

T1 sequence (Q2K0Z2 entry or part of it): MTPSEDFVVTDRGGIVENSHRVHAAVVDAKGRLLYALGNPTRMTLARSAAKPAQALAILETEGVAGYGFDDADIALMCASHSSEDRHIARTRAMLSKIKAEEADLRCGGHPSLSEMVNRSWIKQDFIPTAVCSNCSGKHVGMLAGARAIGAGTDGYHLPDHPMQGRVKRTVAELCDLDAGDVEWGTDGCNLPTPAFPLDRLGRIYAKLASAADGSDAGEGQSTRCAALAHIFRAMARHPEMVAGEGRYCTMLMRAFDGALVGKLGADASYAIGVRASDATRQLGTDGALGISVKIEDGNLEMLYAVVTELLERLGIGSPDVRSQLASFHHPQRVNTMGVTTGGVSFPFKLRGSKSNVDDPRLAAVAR

Consider `NC(=O)C[C@H](N)C(=O)O` [L-asparagine], for which the Michaelis-Menten constant (Km) on ReAV was 2700 ± 100 µM.

B1: ReAV H139A (enzyme, Rhizobium etli)
chain: MTPSEDFVVTDRGGIVENSHRVHAAVVDAKGRLLYALGNPTRMTLARSAAKPAQALAILETEGVAGYGFDDADIALMCASHSSEDRHIARTRAMLSKIKAEEADLRCGGHPSLSEMVNRSWIKQDFIPTAVCSNCSGKAVGMLAGARAIGAGTDGYHLPDHPMQGRVKRTVAELCDLDAGDVEWGTDGCNLPTPAFPLDRLGRIYAKLASAADGSDAGEGQSTRCAALAHIFRAMARHPEMVAGEGRYCTMLMRAFDGALVGKLGADASYAIGVRASDATRQLGTDGALGISVKIEDGNLEMLYAVVTELLERLGIGSPDVRSQLASFHHPQRVNTMGVTTGGVSFPFKLRGSKSNVDDPRLAAVAR
notes: Homodimer in the crystal (two dimers per asymmetric unit); also called H139A mutant; Rhizobium etli Class 3 L-asparaginase ReAV H139A mutein; source: E. coli BL21 Gold, purified (HisTrap, TEV digestion, Superdex 200)
Regarding B1, the binding result in data set [1] is reported as “binds”. Besides, in data set [2], the Km amounted to 5600 ± 200 µM, the kcat is 445 ± 20 s⁻¹ and the kcat/Km turned out to be 80000 ± 1000 M⁻¹ s⁻¹.

B2: ReAV D187A (enzyme, Rhizobium etli)
chain: MTPSEDFVVTDRGGIVENSHRVHAAVVDAKGRLLYALGNPTRMTLARSAAKPAQALAILETEGVAGYGFDDADIALMCASHSSEDRHIARTRAMLSKIKAEEADLRCGGHPSLSEMVNRSWIKQDFIPTAVCSNCSGKHVGMLAGARAIGAGTDGYHLPDHPMQGRVKRTVAELCDLDAGDVEWGTAGCNLPTPAFPLDRLGRIYAKLASAADGSDAGEGQSTRCAALAHIFRAMARHPEMVAGEGRYCTMLMRAFDGALVGKLGADASYAIGVRASDATRQLGTDGALGISVKIEDGNLEMLYAVVTELLERLGIGSPDVRSQLASFHHPQRVNTMGVTTGGVSFPFKLRGSKSNVDDPRLAAVAR
notes: Homodimer in the crystal (two dimers per asymmetric unit); also called D187A mutant; Rhizobium etli Class 3 L-asparaginase ReAV D187A mutein; source: E. coli BL21 Gold, purified (HisTrap, TEV digestion, Superdex 200)
Take B2: the binding result in data set [1] is listed as “binds”.

B3: ReAV C135A (enzyme, Rhizobium etli)
chain: MTPSEDFVVTDRGGIVENSHRVHAAVVDAKGRLLYALGNPTRMTLARSAAKPAQALAILETEGVAGYGFDDADIALMCASHSSEDRHIARTRAMLSKIKAEEADLRCGGHPSLSEMVNRSWIKQDFIPTAVCSNASGKHVGMLAGARAIGAGTDGYHLPDHPMQGRVKRTVAELCDLDAGDVEWGTDGCNLPTPAFPLDRLGRIYAKLASAADGSDAGEGQSTRCAALAHIFRAMARHPEMVAGEGRYCTMLMRAFDGALVGKLGADASYAIGVRASDATRQLGTDGALGISVKIEDGNLEMLYAVVTELLERLGIGSPDVRSQLASFHHPQRVNTMGVTTGGVSFPFKLRGSKSNVDDPRLAAVAR
notes: Homodimer in the crystal (one dimer per asymmetric unit); also called C135A mutant; Rhizobium etli Class 3 L-asparaginase ReAV C135A mutein; source: E. coli BL21 Gold, purified (HisTrap, TEV digestion, Superdex 200)
Regarding B3, the binding result in data set [1] is recorded as “binds”.

B4: ReAV K138A (enzyme, Rhizobium etli)
chain: MTPSEDFVVTDRGGIVENSHRVHAAVVDAKGRLLYALGNPTRMTLARSAAKPAQALAILETEGVAGYGFDDADIALMCASHSSEDRHIARTRAMLSKIKAEEADLRCGGHPSLSEMVNRSWIKQDFIPTAVCSNCSGAHVGMLAGARAIGAGTDGYHLPDHPMQGRVKRTVAELCDLDAGDVEWGTDGCNLPTPAFPLDRLGRIYAKLASAADGSDAGEGQSTRCAALAHIFRAMARHPEMVAGEGRYCTMLMRAFDGALVGKLGADASYAIGVRASDATRQLGTDGALGISVKIEDGNLEMLYAVVTELLERLGIGSPDVRSQLASFHHPQRVNTMGVTTGGVSFPFKLRGSKSNVDDPRLAAVAR
notes: Homodimer in the crystal (two dimers per asymmetric unit); also called K138A mutant; Rhizobium etli Class 3 L-asparaginase ReAV K138A mutein; source: E. coli BL21 Gold, purified (HisTrap, TEV digestion, Superdex 200)
With B4, in data set [1], the binding result is “binds”.

B5: ReAV C189A (enzyme, Rhizobium etli)
chain: MTPSEDFVVTDRGGIVENSHRVHAAVVDAKGRLLYALGNPTRMTLARSAAKPAQALAILETEGVAGYGFDDADIALMCASHSSEDRHIARTRAMLSKIKAEEADLRCGGHPSLSEMVNRSWIKQDFIPTAVCSNCSGKHVGMLAGARAIGAGTDGYHLPDHPMQGRVKRTVAELCDLDAGDVEWGTDGANLPTPAFPLDRLGRIYAKLASAADGSDAGEGQSTRCAALAHIFRAMARHPEMVAGEGRYCTMLMRAFDGALVGKLGADASYAIGVRASDATRQLGTDGALGISVKIEDGNLEMLYAVVTELLERLGIGSPDVRSQLASFHHPQRVNTMGVTTGGVSFPFKLRGSKSNVDDPRLAAVAR
notes: Homodimer in the crystal (one dimer per asymmetric unit); also called C189A mutant; Rhizobium etli Class 3 L-asparaginase ReAV C189A mutein; source: E. coli BL21 Gold, purified (HisTrap, TEV digestion, Superdex 200)
Take B5: in data set [1], the binding result is recorded as “binds”.

What is called Km is the concentration of substrate that gives half-maximal velocity. Usually kcat stands for the maximal rate divided by the concentration of active sites. As usually defined, the kcat/Km is the turnover number divided by the Michaelis constant.
